Data on two molecules can be found in PMC8913300 (2022).

Test [1] has as its target DnaJB4 (human, UniProt Q9UDY4 1-337). As to the kind of experiment: FP.
In test [2] the target is T1, C terminus of Hsc70 interacting protein (CHIP) (human, UniProt Q9UNE7 1-303).
T1 chain: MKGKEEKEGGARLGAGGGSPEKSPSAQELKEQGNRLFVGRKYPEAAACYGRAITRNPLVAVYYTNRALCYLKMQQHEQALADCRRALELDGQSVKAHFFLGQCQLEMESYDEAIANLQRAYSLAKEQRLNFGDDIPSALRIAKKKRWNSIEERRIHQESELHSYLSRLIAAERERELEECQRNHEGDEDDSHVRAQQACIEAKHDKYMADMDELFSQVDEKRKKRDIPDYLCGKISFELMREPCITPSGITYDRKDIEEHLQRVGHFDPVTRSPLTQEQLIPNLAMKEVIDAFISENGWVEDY
In words: FP.

No end group written: not given here.

DnaJB4, sequence (Q9UDY4 whole entry): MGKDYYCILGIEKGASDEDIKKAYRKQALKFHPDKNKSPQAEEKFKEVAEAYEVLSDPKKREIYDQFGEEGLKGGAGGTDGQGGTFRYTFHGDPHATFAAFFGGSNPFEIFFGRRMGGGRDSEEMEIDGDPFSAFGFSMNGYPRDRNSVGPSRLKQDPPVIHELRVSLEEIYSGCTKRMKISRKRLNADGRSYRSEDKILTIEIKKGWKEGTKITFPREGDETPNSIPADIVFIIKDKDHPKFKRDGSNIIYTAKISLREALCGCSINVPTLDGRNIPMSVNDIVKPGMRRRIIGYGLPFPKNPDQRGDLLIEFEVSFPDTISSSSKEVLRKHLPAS

A word on the Kd: it is the constant that tells how readily two partners part at equilibrium. The low end stands for tighter binding, the high end for weaker binding. For GSGPEIEEVD-OH (not fully specified (N-terminus); printed as FITC-Ahx-GSGPEIEEVD) [Hsp72 T636E tracer FITC-Ahx-GSGPEIEEVD], the Kd is 1760 nM in test [1] and 5040 nM in test [2].

For GSGPTIEEVD-OH (not fully specified (N-terminus); printed as FITC-Ahx-GSGPTIEEVD) [Hsp72 tracer FITC-Ahx-GSGPTIEEVD], the Kd in test [2] came out at 1050 nM.
